Test results from article PMC10948360, “Tropomyosin 1-I/C coordinates kinesin-1 and dynein motors during oskar mRNA transport” (Nature Structural & Molecular Biology, 2024).

T1: Khc motor domain (Khc 1-365) (Drosophila, UniProt P17210 1-365)
T1 construct: Kinesin heavy chain (Khc), Drosophila, amino acids 1-365 (motor domain); GST removal with 3C protease is stated for NMR; for the pull-down the prey is printed as Khc 1–365 without GST; source: E. coli BL21-CodonPlus(DE3)-RIL, purified (GSTrap, SEC)
T1 sequence (looked up): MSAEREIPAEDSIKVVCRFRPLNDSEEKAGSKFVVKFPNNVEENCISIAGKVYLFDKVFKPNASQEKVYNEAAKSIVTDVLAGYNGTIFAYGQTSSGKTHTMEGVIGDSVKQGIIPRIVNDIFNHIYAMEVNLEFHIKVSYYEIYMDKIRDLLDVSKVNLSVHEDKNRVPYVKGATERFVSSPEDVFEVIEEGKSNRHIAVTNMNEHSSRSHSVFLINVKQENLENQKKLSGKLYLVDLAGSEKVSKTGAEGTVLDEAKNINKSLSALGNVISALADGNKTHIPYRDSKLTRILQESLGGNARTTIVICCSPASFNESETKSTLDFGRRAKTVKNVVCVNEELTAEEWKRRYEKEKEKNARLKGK


Experiments:
[1] = molecular target: T1, Khc motor domain (Khc 1-365); assay: pull-down; GST-Khc 855–975 (5 or 10 µM) as bait on glutathione Sepharose, 50 µM Khc 1–365 as prey, Tm1 1–335 at 5 to 15 µM; GF150 buffer, 4 °C; settings: both partners purified
[2] = molecular target: T1, Khc motor domain (Khc 1-365); assay: NMR titration; 1H-15N HSQC of 50 µM 15N-labeled Khc 855–975 at 298 K, 25 mM NaPO4 pH 6.5, 150 mM NaCl; unlabeled partners added, with or without U10 RNA; settings: both partners purified

Row | binding result [1] | binding result [2] | Binder
1 | binds |  | GST-Khc 855-975 (domain or fragment) not shown
2 |  | binds | Khc tail (Khc 855-975) (domain or fragment, 15N-labeled (13C,15N for assignment) in the NMR experiments; used unlabeled in microtubule pelleting; also called tail domain) not shown
